{"source": "patent US7943358B2", "about": "“Polymerase enhancing factor (PEF) extracts, PEF protein complexes, isolated PEF protein, and methods for purifying and identifying” (Agilent Technologies, Inc., priority 1997, dated 2011)", "molecules": {"B1": {"name": "PEF: polymerase enhancing factor complex purified from Pyrococcus furiosus; predominant components P50 and P45 (protein)", "chain 1": "MLHHVKLIYATKSRKLVGKKIVXXXPGSIAALDVKACEGLIRHGAEVHAVMSEAATKIIHPYAWNLPTGNPVITEITGFIEHVELAGEHENKADLILVCPATANTISKIACGIDDTPVTTVVTTAFPHIPIMIAPAMHETMYRHPIVRENIERLKKLGVEFIGPRIEEGRAKVASIDEIVYRVIKKLHKKTLEGKRVLVTAGATREYIDPIRFITNASSGKMGVALAEEADFRGAVTLIRTKGSVKAFRIRKIKLKVETVEEMLSAIENELRSKKYDVVIMAAAVSDFRPKIKAEGKIKSGRSITIELVPXNPKIIDRIKEIQPNVFLVGFKAETSKEKLIEEGKRQIERAKADLVVGNTLEAFGSEENQVVLIGRDFTKELPKMKKRELAERIWDEIEKXLS", "chain 2": "MLLPDWKIRKEILIEPFSEESLQPAGYDLRVGREAFVKGKLIDVEKEGKVVIPPREYALILTLERIKLPDDVMGDMKIRSSLAREGVIGSFAWVDPGWDGNLTLMLYNASNEPVELRYGERFVQIAFIRLEGPARNPYRGNYQGSTRLAFSKRKKL", "modifications": "not fully specified; X: residue not identified in the source", "notes": "polymerase enhancing factor complex purified from Pyrococcus furiosus; predominant components P50 and P45"}}, "assay": "Reverse phase HPLC analysis of dCTP conversion", "assay_type": "biochemical", "description": "The similarity of P45 to dCTP deaminases prompted us to test whether dCTP or other nucleotide triphosphates were substrates of PEF/P45. PEF was incubated with dCTP or dUTP and the reaction products were separated by reverse phase HPLC. Reaction mixtures (50 μl) containing 1× cloned Pfu polymerase buffer, 10 mM dCTP or dUTP, and 700 ng PEF (or 5 μl of cloned p45 (˜100 ng) or nothing (neg. control)) were incubated at 72° C. for 1 hour. The samples were injected on a […] Waters Delta-pak C-18 column (300 angstrom/15 μm), equilibrated in 50 mM triethylammonium acetate, pH (7.0) (A). Products were eluted with acetonitrile (B) at 2 ml/min. using the following gradient: 0% B for 5 minutes, 0-10% B over 20 minutes. Absorbence of the eluate was monitored with a photodiode array detector, and peak areas were integrated at 260 nm."}
{"molecule": "B1", "values": [{"measurement": "deamination of dCTP", "value": "No deamination"}, {"measurement": "dCTP converted", "setting": "1 hour, 72° C., 700 ng PEF", "value": 16.6, "unit": "%"}]}
